Molecular target: the molecule itself
Experiment: SEC-MALS; ParB alone, no DNA; 9 or 80 uM ParB2; Superdex 200 in 50 mM Hepes-KOH, 150 mM KCl, 2.5 mM MgCl2, 2 mM beta-mercaptoethanol; monomer and dimer

B1: Bacillus subtilis ParB (natural protein, UniProt P26497 1-282, looked up)
chain: MAKGLGKGINALFNQVDLSEETVEEIKIADLRPNPYQPRKHFDDEALAELKESVLQHGILQPLIVRKSLKGYDIVAGERRFRAAKLAGLDTVPAIVRELSEALMREIALLENLQREDLSPLEEAQAYDSLLKHLDLTQEQLAKRLGKSRPHIANHLRLLTLPENIQQLIAEGTLSMGHGRTLLGLKNKNKLEPLVQKVIAEQLNVRQLEQLIQQLNQNVPRETKKKEPVKDAVLKERESYLQNYFGTTVNIKRQKKKGKIEIEFFSNEDLDRILELLSERES
notes: ParB (Spo0J) of Bacillus subtilis 168; the parB gene was amplified from genomic DNA and cloned into pET28a(+); native (untagged) protein; intact monomer has a theoretical weight of 32.2 kDa; Untagged; also called Spo0J; ParB2 (the dimer); source: E. coli BL21 (DE3), pET28a-ParB, purified (ammonium sulphate cuts, HiTrap Heparin, Mono S; some preparations also Superdex S75)
stoichiometry N: 2

Source: article PMC4333373, “Specific and non-specific interactions of ParB with DNA: implications for chromosome segregation” (Nucleic Acids Research, 2015)
